Measured values published in patent US20250277208A1, “Method of Peptide Library Construction and Peptides Thereof” (Alcamena Stem Cell Therapeutics, LLC, priority 2024, published 2025).
Square brackets hold non-standard residues; d marks the D form. Ends that are not written are not given here. Phe(4-F) = N[C@@H](Cc1ccc(F)cc1)C(=O)O; Gla = N[C@@H](CC(C(=O)O)C(=O)O)C(=O)O; Cha = N[C@@H](CC1CCCCC1)C(=O)O; hLeu = CC(C)CC[C@H](N)C(=O)O

Target: T1, Biotinylated recombinant human IL-6 (human, UniProt P05231 30-212, biotinylated (sites not given))
Experiment: cell-based or functional assay
Details: not given

IC50, inhibition of IL-6-induced cell signaling (IL-6 Bioassay, luciferase reporter cells)	Molecule
183 nM	Ac-ATIRDLIRMMKVCVG-NH2 [Peptide 82]
142 nM	Ac-ATIRDLLRRMCHIVG-NH2 [Peptide 38 (2)]
23.5 nM	Ac-FSFRDLLRRMCHIVG-NH2 [Peptide 72]
72 nM	Ac-FAFRDLLRRMCHIVG-NH2 [Peptide 45 (2)]
580 nM	Ac-SVRDLLRRMKVCVG-NH2 [Peptide 27 (2)]
3400 nM	Ac-TIRDLLRRMCHIVG-NH2 [Peptide 71]

Target: T1, Biotinylated recombinant human IL-6
Experiment: SPR (Biacore), IL-6 on chip
Details: not given

Molecule	Kd	binding result
SVRDLLRRMCVFWG (termini not protected) [Peptide 49]	–	no binding (tested: 20 µM highest peptide concentration)
ETIRDLLRRMCHIVG (termini not protected) [Peptide 24]	119 nM	–
ATIRDLLRRMCHIVG (termini not protected) [Peptide 38]	54 nM	–
SVRDANYRMCHIVG (termini not protected) [Peptide 39]	–	no binding (tested: 20 µM highest peptide concentration)
CVYRDLLRRMCHIVG (termini not protected) [Peptide 35]	–	no binding (tested: 20 µM highest peptide concentration)
SVRDWTPRMCHIVG (termini not protected) [Peptide 48]	2820 nM	–
SVRDLPTQMCHIVG (termini not protected) [Peptide 37]	649 nM	–
SVRDLLSHNCHIVG (termini not protected) [Peptide 43]	–	no binding (tested: 20 µM highest peptide concentration)
SVRDLLRRMCHIVG (linear, N and C termini not protected; also called 9 (parent); parent peptide 9) [Peptide 9]	2580 nM	–
SVRDLLRRMKVCVG (termini not protected) [Peptide 27]	58 nM	–
SVRDLQSTMCHIVG (termini not protected) [Peptide 47]	–	no binding (tested: 20 µM highest peptide concentration)
H-SVRDLQKQMCHIVG-OH (Printed SVRDLQKOMCHIVG (the letter O is as printed, perhaps a misprint); termini not protected) [Peptide 44]	–	no binding (tested: 20 µM highest peptide concentration)

Now from value to molecule, other results behind:

Kd	Molecule	binding result
2730 nM	ACMDLLRRMCHIVG (termini not protected) [Peptide 28]	–
92 nM	FAFRDLLRRMCHIVG (termini not protected) [Peptide 45]	–
545 nM	SVRDLIRMMCHIVG (termini not protected; also called variant 33) [Peptide 33]	–

Target: IL-6 signaling (Homo sapiens, UniProt P05231)
Experiment: IL-6 Bioassay (Promega), luciferase reporter cells, inhibition of IL-6-induced cell signaling
Format: cell-based
Details: peptides incubated with IL-6 for 10 min, IL-6 0.5 nM, cells 6 hours
Method: To verify the ability of the peptides of the invention to inhibit IL-6-signaling, they were tested with the IL-6 Bioassay Kit (Promega). This kit includes human cells engineered to express the IL-6 receptor and a luciferase reporter driven by a response element. When IL-6 binds, the IL-6R transduces intracellular signals resulting in luminescence (fluorescence). Inhibition of IL-6 interaction with the receptor leads to the decrease of the luciferase expression and lower fluorescence.
The selected peptides were incubated with IL-6 for 10 min before being added to cell culture medium. […] Peptides 27 (2), 38 (2) and 45 (2) were also tested.
The ability of peptides to inhibit IL-6 signaling pathway was tested with the IL-6 Bioassay from Promega (cat #JA2501). The bioluminescent signal is detected and quantified using Bio-Glo™ Luciferase Assay System. Different concentrations of the test peptides were mixed with IL-6 (0.5 nM) and added to the IL-6 Bioassay Cells according to the manufacturer's instructions. Cells were incubated for 6 hours in a humidified incubator at 37° C. and 5% CO2 concentration. Following incubation, 75 microliters of the Bio-Glo™ Reagent was added to the cell culture and the luminescence was measured with a Biotek Synergy HTX plate reader. Data was analyzed according to manufacturer's recommendations.

Sequence of IL-6 signaling (P05231 30-212): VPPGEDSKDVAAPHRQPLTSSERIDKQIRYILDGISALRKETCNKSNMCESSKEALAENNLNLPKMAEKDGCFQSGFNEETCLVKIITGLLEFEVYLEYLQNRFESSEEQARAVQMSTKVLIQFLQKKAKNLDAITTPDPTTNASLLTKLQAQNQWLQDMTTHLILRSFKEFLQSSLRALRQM

IC50	Molecule
16800 nM	Ac-TIRDLIRMMKVCVG-NH2 [Peptide 100, TIRDLIRMMKVCVG]

Target: T1, Biotinylated recombinant human IL-6
Experiment: SPR (Biacore), IL-6 on chip
Details: not given
Remark: another data set of the same source

Molecule	Kd	binding result
NQQLIEEIIQILHKIFEIL (published peptide (Kobayashi et al. 2011) synthesized by the inventors; whether its termini were protected is not clear) [Control peptide CA11]	50800 nM	–
Ac-ATIRDLLSHNCHIVG-NH2 [Peptide 52]	–	no binding (tested: 20 µM highest peptide concentration)
Ac-SVRDLIRMMKVCVG-NH2 [Peptide 64]	1390 nM	–
SVKDLQHGLRHVVG (homologous to peptide 9 without its mutations (two unmutated fragments of IL-6R); whether its termini were protected is not clear) [Control peptide C1]	–	no binding (tested: 20 µM highest peptide concentration)
Ac-FSFRDLLRMMCHIVG-NH2 [Peptide 80]	249 nM	–
Ac-ASVRDLLRRMCHIVG-NH2 [Peptide 54]	422 nM	–
Ac-FAFRDLIRMMKHIVG-NH2 [Peptide 77]	405 nM	–
Ac-FSVRDLIRMMKVCVG-NH2 [Peptide 87]	47 nM	–
Ac-FSVRDLLRRMCHIVG-NH2 [Peptide 61]	144 nM	–
Ac-FAFRDLLRMMCHIVG-NH2 [Peptide 75]	132 nM	–
Ac-FAFRDLLRRMCHIVG-NH2 [Peptide 45 (2)]	147 nM	–
Ac-FAFRDLIRMMKVIVG-NH2 [Peptide 76]	1300 nM	–
INTLLSEINSILLDIISLL (published peptide (Kobayashi et al. 2011) synthesized by the inventors; whether its termini were protected is not clear) [Control peptide RA07]	–	no binding (tested: 20 µM highest peptide concentration)
Ac-SVRDLLRRMKVIVG-NH2 [Peptide 73]	1130 nM	–
Ac-SVRDLLRRMCHCVG-NH2 (cysteine pairing not given here) [Peptide 67]	–	no binding (tested: 20 µM highest peptide concentration)
Ac-SVRDLLRRMKHIVG-NH2 [Peptide 65]	150 nM	–
Ac-SVRDLLRMMCHIVG-NH2 [Peptide 69]	172 nM	–
Ac-SVRDLLRRMCVIVG-NH2 [Peptide 66]	283 nM	–
Ac-FAFRDLLSHNCHIVG-NH2 [Peptide 59]	–	no binding (tested: 20 µM highest peptide concentration)
Ac-ATIRDLLRRMKVCVG-NH2 [Peptide 53]	436 nM	–
Ac-FAFRDLLRRMKVCVG-NH2 [Peptide 60]	–	no binding (tested: 20 µM highest peptide concentration)
FD[Cha]DIHLL[Phe(4-F)]LPTEWEK[Gla]KNEE (Printed FD(Cha)DIHLL(4F)LPTEWEK(Cla)KNEE; tested in a linear form) [Control peptide PN-2519]	–	no binding (tested: 20 µM highest peptide concentration)

Second part, led by results:

Kd	Molecule	binding result
115 nM	Ac-ATIRDLLRRMCHIVG-NH2 [Peptide 38 (2)]	–
128 nM	Ac-ATIRDLIRMMCHIVG-NH2 (also called peptide variant 51) [Peptide 51]	–
71 nM	Ac-FAFRDLIRMMCHIVG-NH2 (also called variant 58) [Peptide 58]	–
265 nM	Ac-FSFRDLIRMMKVCVG-NH2 [Peptide 93]	–
1270 nM	Ac-FSFRDLLRMMKVIVG-NH2 [Peptide 81]	–
1490 nM	Ac-FAFRDLIRMMCVIVG-NH2 [Peptide 78]	–
724 nM	Ac-SVRDLIRRMCHIVG-NH2 [Peptide 68]	–
565 nM	Ac-TIRDLLRMMKVIVG-NH2 [Peptide 84]	–
49 nM	Ac-TIRDLLRRMCHIVG-NH2 [Peptide 71]	–
61 nM	H-FD[hLeu]DIHLLFLPTEWEKDKNEE-OH (SMILES CC[C@H](C)[C@H](NC(=O)[C@H](CC(=O)O)NC(=O)[C@H](CCC(C)C)NC(=O)[C@H](CC(=O)O)NC(=O)[C@@H](N)Cc1ccccc1)C(=O)N[C@@H](Cc1c[nH]cn1)C(=O)N[C@@H](CC(C)C)C(=O)N[C@@H](CC(C)C)C(=O)N[C@@H](Cc1ccccc1)C(=O)N[C@@H](CC(C)C)C(=O)N1CCC[C@H]1C(=O)N[C@H](C(=O)N[C@@H](CCC(=O)O)C(=O)N[C@@H](Cc1c[nH]c2ccccc12)C(=O)N[C@@H](CCC(=O)O)C(=O)N[C@@H](CCCCN)C(=O)N[C@@H](CC(=O)O)C(=O)N[C@@H](CCCCN)C(=O)N[C@@H](CC(N)=O)C(=O)N[C@@H](CCC(=O)O)C(=O)N[C@@H](CCC(=O)O)C(=O)O)[C@@H](C)O, linear, termini not protected) [Control peptide PN-1974]	–
